Experimental data from publication PMC10781821, “Novel recombinant aminoacylase from Paraburkholderia monticola capable of N-acyl-amino acid synthesis” (Applied Microbiology and Biotechnology, 2024).

Legend:
[1] = substrate: CCCCCCCCCCCC(=O)N[C@@H](C)C(=O)O; assay: ninhydrin assay of released amino acid, initial rates; format: biochemical, Paraburkholderia monticola; settings: hydrolysis, 100 mM Na-borate pH 9.0, Zn2+ (50 µM), 30 °C in Results (Methods print 50 °C)
[2] = substrate: CCCCCCCCCCCC(=O)N[C@@H](Cc1ccccc1)C(=O)O; assay: as above; format: biochemical, Paraburkholderia monticola; settings: hydrolysis, 100 mM Na-borate pH 9.0, Zn2+ (50 µM), 30 °C in Results (Methods print 50 °C)

B1: PmAcy (N-terminally StrepII-tagged aminoacylase) (Paraburkholderia monticola) (protein)
chain: MLSLVLPGLSQAQSTLPPAPPAKPVLFTNFRLFDGKSMTLRDGLYMVVEGNSISQLGQGQPASVEGKTLVDCGGKVMMPGLIDMHWHALLAALPIQVILQSDIAFVHLAASAEAERTLLRGFTTIRDAGGPSFALKQAIDSGMISGPRIYPSGAMITTTGGHGDFRPLTDLPRTSSQVTQGERDGGFAIADTEDEMRVRVREQFIQGATQIKLVGSGGVSTPRSPLDMLTFTEKQLRAAVETAADWGTYVLSHAYTPEAVQRSVAAGAQCIEHGHLMDDKTAALMAKNGTWLSTQPFISEEDVGPLAPQSREKFLEVVAGTDNAFRLARKHGIKVAFGTDLLFSQAIATRQGTMLTHMKRWYSPAEALGMATGTNGQLLALTGKRNPYPRRLGVLEEGAYADLLLVDGNPLENLDLIANPEQNLRIVMKDGKFYKNTLKA
notes: full-length codon-optimised gene, N-terminal StrepII-tag with serine-glycine linker kept; E. coli BL21 (DE3) pGro7 (GroEL/S)
Km [1]: 1950 µM | Km [2]: 210 µM
